The values that follow come from US20180298374A1 (Merck KGaA, published 2018).

Experiment [1] deals with T1, huEGFR (human, UniProt P00533 25-645, limits assumed, phycoerythrin conjugate (LYNX rapid RPE kit)).
T1 construct: also called EGFR-PE; EGFR-phycoerythrin

Experiment [2] has as its target T1, huEGFR. The source holds these as a separate data set.

Like-named read-outs stand apart in the source and are kept apart here.

B1: matuzumab (antibody, V domains shown)
VH: QVQLVQSGAEVKKPGASVKVSCKASGYTFTSHWMHWVRQAPGQGLEWIGEFNPSNGRTNYNEKFKSKATMTVDTSTNTAYMELSSLRSEDTAVYYCASRDYDYDGRYFDYWGQGTLVTVSS
VL: DIQMTQSPSSLSASVGDRVTITCSASSSVTYMYWYQQKPGKAPKLLIYDTSNLASGVPSRFSGSGSGTDYTFTISSLQPEDIATYYCQQWSSHIFTFGQGTKVEIKG
With B1, the Kd is 0.34 nM in the experiment with huEGFR [1] and 113 nM with huEGFR [2].

As a reminder, the Kd is the concentration at which binding is half-saturated.
